The text below walks through data of patent US20120245327.

In data set [1] the target is recombinant human collagen Type I (purified product of TT080417-1-8 strain).
Data set [2] has as its target T1, recombinant human collagen Type III (purified product of TT061226-1-3 strain).
T1 chain: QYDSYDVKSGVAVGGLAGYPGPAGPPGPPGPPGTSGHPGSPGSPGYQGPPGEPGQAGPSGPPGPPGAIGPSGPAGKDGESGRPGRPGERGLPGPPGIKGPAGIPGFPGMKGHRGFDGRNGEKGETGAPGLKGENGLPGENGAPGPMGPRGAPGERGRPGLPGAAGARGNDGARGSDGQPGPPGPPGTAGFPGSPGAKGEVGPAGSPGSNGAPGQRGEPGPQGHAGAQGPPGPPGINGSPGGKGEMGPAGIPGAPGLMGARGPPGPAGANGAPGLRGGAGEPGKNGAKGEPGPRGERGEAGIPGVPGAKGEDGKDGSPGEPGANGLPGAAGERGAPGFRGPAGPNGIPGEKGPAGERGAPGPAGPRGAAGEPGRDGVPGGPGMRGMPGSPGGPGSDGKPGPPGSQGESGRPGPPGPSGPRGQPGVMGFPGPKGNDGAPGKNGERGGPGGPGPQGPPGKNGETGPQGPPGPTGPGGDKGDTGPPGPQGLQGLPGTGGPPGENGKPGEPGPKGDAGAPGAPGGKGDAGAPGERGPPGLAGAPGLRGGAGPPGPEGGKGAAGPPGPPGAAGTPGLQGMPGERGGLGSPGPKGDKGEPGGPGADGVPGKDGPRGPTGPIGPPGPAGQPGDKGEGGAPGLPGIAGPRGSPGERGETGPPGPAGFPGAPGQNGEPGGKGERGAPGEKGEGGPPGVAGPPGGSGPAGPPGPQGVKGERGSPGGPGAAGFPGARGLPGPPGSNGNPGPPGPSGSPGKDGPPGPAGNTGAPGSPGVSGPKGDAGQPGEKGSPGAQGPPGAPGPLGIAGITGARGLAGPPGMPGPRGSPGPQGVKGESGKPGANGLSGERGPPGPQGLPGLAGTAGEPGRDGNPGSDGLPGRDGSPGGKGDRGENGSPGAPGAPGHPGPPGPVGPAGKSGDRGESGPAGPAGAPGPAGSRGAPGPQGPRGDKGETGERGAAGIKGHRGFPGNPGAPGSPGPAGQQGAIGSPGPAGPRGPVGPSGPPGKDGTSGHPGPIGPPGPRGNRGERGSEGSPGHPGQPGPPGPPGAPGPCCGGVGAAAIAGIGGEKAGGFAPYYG

recombinant human collagen Type I (purified product of TT080417-1-8 strain), sequence (chain, as listed by the source, chain 1 of 2): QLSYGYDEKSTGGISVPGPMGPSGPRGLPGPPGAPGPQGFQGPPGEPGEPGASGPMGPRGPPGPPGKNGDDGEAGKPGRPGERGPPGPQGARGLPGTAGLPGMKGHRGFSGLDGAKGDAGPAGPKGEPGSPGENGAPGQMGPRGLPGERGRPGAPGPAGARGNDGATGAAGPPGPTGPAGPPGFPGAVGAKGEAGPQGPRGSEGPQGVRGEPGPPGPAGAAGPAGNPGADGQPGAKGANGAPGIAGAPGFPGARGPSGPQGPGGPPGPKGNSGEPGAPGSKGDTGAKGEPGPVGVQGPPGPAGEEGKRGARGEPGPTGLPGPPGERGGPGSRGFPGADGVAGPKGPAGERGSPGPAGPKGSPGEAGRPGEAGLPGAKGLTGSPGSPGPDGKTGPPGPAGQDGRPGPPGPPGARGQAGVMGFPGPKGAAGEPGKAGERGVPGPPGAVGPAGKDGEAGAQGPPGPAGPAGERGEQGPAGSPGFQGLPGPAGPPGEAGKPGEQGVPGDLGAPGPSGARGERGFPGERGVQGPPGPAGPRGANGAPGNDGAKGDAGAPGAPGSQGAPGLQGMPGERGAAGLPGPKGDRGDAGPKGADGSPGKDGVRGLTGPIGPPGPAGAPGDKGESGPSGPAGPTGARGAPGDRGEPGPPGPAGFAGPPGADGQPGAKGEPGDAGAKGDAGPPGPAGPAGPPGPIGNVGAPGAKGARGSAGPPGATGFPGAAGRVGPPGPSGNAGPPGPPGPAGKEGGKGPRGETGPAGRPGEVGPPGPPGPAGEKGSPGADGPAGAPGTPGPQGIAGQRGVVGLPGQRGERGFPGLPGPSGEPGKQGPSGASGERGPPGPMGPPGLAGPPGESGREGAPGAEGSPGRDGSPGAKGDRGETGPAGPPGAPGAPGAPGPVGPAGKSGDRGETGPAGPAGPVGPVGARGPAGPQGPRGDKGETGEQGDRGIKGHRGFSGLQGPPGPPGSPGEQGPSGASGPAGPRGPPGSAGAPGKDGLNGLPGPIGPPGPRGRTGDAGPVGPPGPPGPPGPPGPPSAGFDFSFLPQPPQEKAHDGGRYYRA
recombinant human collagen Type I (purified product of TT080417-1-8 strain), sequence (chain, as listed by the source, chain 2 of 2): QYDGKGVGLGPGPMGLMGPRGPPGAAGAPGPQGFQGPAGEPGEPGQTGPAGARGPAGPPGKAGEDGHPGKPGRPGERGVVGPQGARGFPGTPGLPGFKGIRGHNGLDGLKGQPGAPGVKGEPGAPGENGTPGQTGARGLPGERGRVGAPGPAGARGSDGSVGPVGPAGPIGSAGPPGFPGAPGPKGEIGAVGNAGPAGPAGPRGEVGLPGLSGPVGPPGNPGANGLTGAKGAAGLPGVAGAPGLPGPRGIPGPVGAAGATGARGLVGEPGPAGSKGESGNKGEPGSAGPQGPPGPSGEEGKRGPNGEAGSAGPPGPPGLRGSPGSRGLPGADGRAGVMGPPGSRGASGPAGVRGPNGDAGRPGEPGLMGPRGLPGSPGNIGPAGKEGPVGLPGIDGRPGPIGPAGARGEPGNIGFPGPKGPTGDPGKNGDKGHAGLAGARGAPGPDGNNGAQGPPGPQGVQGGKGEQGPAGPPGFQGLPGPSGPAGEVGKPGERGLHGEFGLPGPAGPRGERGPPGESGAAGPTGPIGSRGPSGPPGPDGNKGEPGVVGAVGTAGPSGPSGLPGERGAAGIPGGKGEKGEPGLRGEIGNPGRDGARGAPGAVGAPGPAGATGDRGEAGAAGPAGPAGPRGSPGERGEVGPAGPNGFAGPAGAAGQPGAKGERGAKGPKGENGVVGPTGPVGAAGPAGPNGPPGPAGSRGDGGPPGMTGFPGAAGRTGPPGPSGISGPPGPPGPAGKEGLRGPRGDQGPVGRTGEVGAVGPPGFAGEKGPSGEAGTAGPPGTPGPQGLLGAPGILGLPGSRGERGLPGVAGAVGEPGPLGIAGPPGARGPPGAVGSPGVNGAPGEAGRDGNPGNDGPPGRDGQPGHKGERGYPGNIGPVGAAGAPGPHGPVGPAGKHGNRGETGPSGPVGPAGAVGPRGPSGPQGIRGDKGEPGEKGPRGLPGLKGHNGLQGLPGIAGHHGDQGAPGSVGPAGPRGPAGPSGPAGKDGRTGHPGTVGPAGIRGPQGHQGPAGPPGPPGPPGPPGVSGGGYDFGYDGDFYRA

B1: lysyl hydroxylase 1 (protein)
chain: KGDAKPEDNLLVLTVATKETEGFRRFKRSAQFFNYKIQALGLGEDWNVEKGTSAGGGQKVRLLKKALEKHADKEDLVILFTDSYDVLFASGPRELLKKFRQSRSQVVFSAEELIYPDRRLETKYPVVSDGKRFLGSGGFIGYAPNLSKLVAEWEGQDSDSDQLFYTKIFLDPEKREQINITLDHRCRIFQNLDGALDEVVLKFEMGHVRARNLAYDTLPVLIHGNGPTKLQLNYLGNYIPRFWTFETGCTVCDEGLRSLKGIGDEALPTVLVGVFIEQPTPFVSLFFQRLLRLHYPQKHMRLFIHNHEQHHKAQVEEFLAQHGSEYQSVKLVGPEVRMANADARNMGADLCRQDRSCTYYFSVDADVALTEPNSLRLLIQQNKNVIAPLMTRHGRLWSNFWGALSADGYYARSEDYVDIVQGRRVGVWNVPYISNIYLIKGSALRGELQSSDLFHHSKLDPDMAFCANIRQQDVFMFLTNRHTLGHLLSLDSYRTTHLHNDLWEVFSNPEDWKEKYIHQNYTKALAGKLVETPCPDVYWFPIFTEVACDELVEEMEHFGQWSLGNNKDNRIQGGYENVPTIDIHMNQIGFEREWHKFLLEYIAPMTEKLYPGYYTRAQFDLAFVVRYKPDEQPSLMPHHDASTFTINIALNRVGVDYEGGGCRFLRYNCSIRAPRKGWTLMHPGRLTHYHEGLPTTRGTRYIAVSFVDP
Turning to B1, the “composition ratio of hydroxylated lysine to the total lysine residues (amino acid analysis of purified collagen)” value in data set [1] was “a composition ratio of the hydroylated lysine to the total lysine residues was increased up to 50.1%”; in data set [2], “a composition ratio of hydroxylated lysine to the total lysine residues was increased up to 36.9%”.
